T1: human FcγRIIb extracellular domain, His-tagged (human, UniProt P31994 43-217)
T1 construct: also called FcgRIIb (human)
T1 sequence: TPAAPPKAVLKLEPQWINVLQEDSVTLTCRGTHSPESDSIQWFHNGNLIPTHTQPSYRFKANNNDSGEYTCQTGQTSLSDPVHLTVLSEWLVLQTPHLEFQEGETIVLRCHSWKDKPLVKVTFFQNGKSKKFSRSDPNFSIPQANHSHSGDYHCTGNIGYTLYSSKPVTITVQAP

T2: human FcγRIIaH extracellular domain, His-tagged (human, UniProt P12318 34-217)
T2 construct: also called human FcγRIIa (type H); FcgRIIaH
T2 sequence: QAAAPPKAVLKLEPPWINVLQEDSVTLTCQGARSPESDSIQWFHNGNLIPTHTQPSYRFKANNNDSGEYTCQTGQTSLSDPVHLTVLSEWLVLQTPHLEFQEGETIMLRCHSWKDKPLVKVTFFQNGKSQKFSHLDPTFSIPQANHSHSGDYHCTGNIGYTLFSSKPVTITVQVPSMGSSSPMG

T3: cynomolgus monkey FcγRIIa3 extracellular domain, His-tagged (cynomolgus monkey)
T3 construct: also called cyno FcγRIIa3; cynoFcgRIIa3
T3 chain: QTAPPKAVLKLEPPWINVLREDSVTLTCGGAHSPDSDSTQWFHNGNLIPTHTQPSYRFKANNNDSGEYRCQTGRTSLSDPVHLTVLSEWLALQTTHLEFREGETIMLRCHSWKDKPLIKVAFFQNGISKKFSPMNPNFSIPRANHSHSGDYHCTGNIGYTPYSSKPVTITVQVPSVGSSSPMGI

T4: cynomolgus monkey FcγRIIa1 extracellular domain, His-tagged (cynomolgus monkey)
T4 construct: also called cyno FcγRIIa1; cynoFcgRIIa1
T4 chain: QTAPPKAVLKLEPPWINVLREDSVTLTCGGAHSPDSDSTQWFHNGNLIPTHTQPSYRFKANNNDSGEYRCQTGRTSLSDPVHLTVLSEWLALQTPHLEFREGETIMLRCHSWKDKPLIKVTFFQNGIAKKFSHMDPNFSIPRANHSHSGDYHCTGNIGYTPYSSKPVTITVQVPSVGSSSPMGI

T5: human FcγRIIaR extracellular domain, His-tagged (human, UniProt P12318 34-217)
T5 construct: also called human FcγRIIa (type R); FcgRIIaR
T5 chain: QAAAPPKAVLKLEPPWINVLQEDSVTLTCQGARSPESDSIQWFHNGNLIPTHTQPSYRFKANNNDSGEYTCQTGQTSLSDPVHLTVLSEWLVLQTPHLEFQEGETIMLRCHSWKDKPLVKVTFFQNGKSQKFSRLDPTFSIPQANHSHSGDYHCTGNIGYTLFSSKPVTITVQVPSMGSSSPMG

T6: cynomolgus monkey FcγRIIb extracellular domain, His-tagged (cynomolgus monkey)
T6 construct: also called cyno FcγRIIb; cynoFcγRIIb
T6 chain: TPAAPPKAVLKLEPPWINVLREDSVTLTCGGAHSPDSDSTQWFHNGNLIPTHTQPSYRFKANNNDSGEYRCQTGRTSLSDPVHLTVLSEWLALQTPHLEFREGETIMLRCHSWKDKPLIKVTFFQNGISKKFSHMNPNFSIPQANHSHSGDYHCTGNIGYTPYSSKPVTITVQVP

T7: cynomolgus monkey FcγRIIa2 extracellular domain, His-tagged (cynomolgus monkey)
T7 construct: also called cyno FcγRIIa2; cynoFcgRIIa2
T7 chain: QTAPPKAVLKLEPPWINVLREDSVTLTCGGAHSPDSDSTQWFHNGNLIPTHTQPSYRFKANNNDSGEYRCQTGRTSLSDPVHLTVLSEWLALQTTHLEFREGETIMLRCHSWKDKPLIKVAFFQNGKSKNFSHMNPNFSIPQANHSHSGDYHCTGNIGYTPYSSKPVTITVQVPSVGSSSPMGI


Columns and labels:
Assay in all cases: SPR; KD of SG1 / KD of variant;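 further: relative to parent M103205H795-SG1 carrying the SG1 human heavy chain constant region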
[1] = target: T1, human FcγRIIb extracellular domain, …
[2] = target: T2, human FcγRIIaH extracellular domain, …
[3] = target: T3, cynomolgus monkey FcγRIIa3 …
[4] = target: T4, cynomolgus monkey FcγRIIa1 …
[5] = target: T8, human FcγRIIIaV extracellular domain, His-tagged (human, UniProt P08637 17-208)
T8 construct: also called FcgRIIIaV

[6] = target: T5, human FcγRIIaR extracellular domain, …
[7] = target: T6, cynomolgus monkey FcγRIIb extracellular …
[8] = target: T7, cynomolgus monkey FcγRIIa2 …

T8 sequence (P08637 17-208 F176V): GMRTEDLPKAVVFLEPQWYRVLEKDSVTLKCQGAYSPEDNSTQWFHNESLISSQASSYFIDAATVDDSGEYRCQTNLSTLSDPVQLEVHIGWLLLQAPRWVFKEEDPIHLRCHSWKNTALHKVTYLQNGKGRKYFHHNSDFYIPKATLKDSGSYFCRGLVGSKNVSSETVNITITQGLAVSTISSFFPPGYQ

| Binder | KD fold (SG1 = 1) [1] | KD fold (SG1 = 1) [2] | KD fold (SG1 = 1) [3] | KD fold (SG1 = 1) [4] | KD fold (SG1 = 1) [5] | KD fold (SG1 = 1) [6] | KD fold (SG1 = 1) [7] | KD fold (SG1 = 1) [8] |
| --- | --- | --- | --- | --- | --- | --- | --- | --- |
| M103205H795-MY041/M103202L889-SK1 (antibody, human IgG1, kappa, Substitution put into M103205H795-SG1) heavy: not shown light: DIVMTQSPATLSLSPGERATLSCTSSQSVYHANWLSWFQQKPGQPPKLLIYWASTLAYGVPSRFSGSGSGTDFTLTISSLQPEDAATYYCAGGYGGGRYAFGQGTKVEIKRTVAAPSVFIFPPSDEQLKSGTASVVCLLNNFYPREAKVQWKVDNALQSGNSQESVTEQDSKDSTYSLSSTLTLSKADYEKHKVYACEVTHQGLSSPVTKSFNRGEC | 1.6 fold | 0.4 fold | 2.3 fold | 0.8 fold | 1.69 fold | 0.9 fold | 0.5 fold | 1.2 fold |
| M103205H795-MY044/M103202L889-SK1 (antibody, human IgG1, kappa, Substitution put into M103205H795-SG1) heavy: not shown light: DIVMTQSPATLSLSPGERATLSCTSSQSVYHANWLSWFQQKPGQPPKLLIYWASTLAYGVPSRFSGSGSGTDFTLTISSLQPEDAATYYCAGGYGGGRYAFGQGTKVEIKRTVAAPSVFIFPPSDEQLKSGTASVVCLLNNFYPREAKVQWKVDNALQSGNSQESVTEQDSKDSTYSLSSTLTLSKADYEKHKVYACEVTHQGLSSPVTKSFNRGEC | 1.4 fold | 0.6 fold | 0.3 fold | 1 fold | 0.9 fold | 1.2 fold | 1.1 fold | 1.5 fold |
| M103205H795-MY064/M103202L889-SK1 (antibody, human IgG1, kappa, Substitution put into M103205H795-SG1) heavy: not shown light: DIVMTQSPATLSLSPGERATLSCTSSQSVYHANWLSWFQQKPGQPPKLLIYWASTLAYGVPSRFSGSGSGTDFTLTISSLQPEDAATYYCAGGYGGGRYAFGQGTKVEIKRTVAAPSVFIFPPSDEQLKSGTASVVCLLNNFYPREAKVQWKVDNALQSGNSQESVTEQDSKDSTYSLSSTLTLSKADYEKHKVYACEVTHQGLSSPVTKSFNRGEC | 1.9 fold | 1.4 fold | 2.5 fold | 1.3 fold | 3.68 fold | 1.6 fold | 1.6 fold | 2 fold |
| M103205H795-MY048/M103202L889-SK1 (P271D) (antibody, human IgG1, kappa, Here the P271D molecule is meant; Put into M103205H795-SG1) heavy: not shown light: DIVMTQSPATLSLSPGERATLSCTSSQSVYHANWLSWFQQKPGQPPKLLIYWASTLAYGVPSRFSGSGSGTDFTLTISSLQPEDAATYYCAGGYGGGRYAFGQGTKVEIKRTVAAPSVFIFPPSDEQLKSGTASVVCLLNNFYPREAKVQWKVDNALQSGNSQESVTEQDSKDSTYSLSSTLTLSKADYEKHKVYACEVTHQGLSSPVTKSFNRGEC | 1.5 fold | 0.4 fold | 3.5 fold | 0.6 fold | 1.33 fold | 0.5 fold | 0.5 fold | 0.5 fold |
| M103205H795-MY063/M103202L889-SK1 (antibody, human IgG1, kappa, Substitution put into M103205H795-SG1) heavy: not shown light: DIVMTQSPATLSLSPGERATLSCTSSQSVYHANWLSWFQQKPGQPPKLLIYWASTLAYGVPSRFSGSGSGTDFTLTISSLQPEDAATYYCAGGYGGGRYAFGQGTKVEIKRTVAAPSVFIFPPSDEQLKSGTASVVCLLNNFYPREAKVQWKVDNALQSGNSQESVTEQDSKDSTYSLSSTLTLSKADYEKHKVYACEVTHQGLSSPVTKSFNRGEC | 7 fold | 2.6 fold | 8.5 fold | 2.3 fold | 5.06 fold | 5.2 fold | 5.3 fold | 3.4 fold |
| M103205H795-MY045/M103202L889-SK1 (antibody, human IgG1, kappa, Substitution put into M103205H795-SG1) heavy: not shown light: DIVMTQSPATLSLSPGERATLSCTSSQSVYHANWLSWFQQKPGQPPKLLIYWASTLAYGVPSRFSGSGSGTDFTLTISSLQPEDAATYYCAGGYGGGRYAFGQGTKVEIKRTVAAPSVFIFPPSDEQLKSGTASVVCLLNNFYPREAKVQWKVDNALQSGNSQESVTEQDSKDSTYSLSSTLTLSKADYEKHKVYACEVTHQGLSSPVTKSFNRGEC | 1.6 fold | 0.4 fold | 2.5 fold | 0.6 fold | 3.38 fold | 0.7 fold | 0.8 fold | 1.3 fold |
| M103205H795-MY068/M103202L889-SK1 (antibody, human IgG1, kappa, Substitution put into M103205H795-SG1) heavy: not shown light: DIVMTQSPATLSLSPGERATLSCTSSQSVYHANWLSWFQQKPGQPPKLLIYWASTLAYGVPSRFSGSGSGTDFTLTISSLQPEDAATYYCAGGYGGGRYAFGQGTKVEIKRTVAAPSVFIFPPSDEQLKSGTASVVCLLNNFYPREAKVQWKVDNALQSGNSQESVTEQDSKDSTYSLSSTLTLSKADYEKHKVYACEVTHQGLSSPVTKSFNRGEC | 2.7 fold | 1.9 fold | 3 fold | 1.5 fold | 0.58 fold | 2.1 fold | 1.8 fold | 1.9 fold |
| M103205H795-MY043/M103202L889-SK1 (antibody, human IgG1, kappa, Substitution put into M103205H795-SG1) heavy: not shown light: DIVMTQSPATLSLSPGERATLSCTSSQSVYHANWLSWFQQKPGQPPKLLIYWASTLAYGVPSRFSGSGSGTDFTLTISSLQPEDAATYYCAGGYGGGRYAFGQGTKVEIKRTVAAPSVFIFPPSDEQLKSGTASVVCLLNNFYPREAKVQWKVDNALQSGNSQESVTEQDSKDSTYSLSSTLTLSKADYEKHKVYACEVTHQGLSSPVTKSFNRGEC | 1.5 fold | 0.2 fold | 0.9 fold | 0.6 fold | 0.68 fold | 0.7 fold | 0.4 fold | 0.1 fold |
| M103205H795-MY065/M103202L889-SK1 (antibody, human IgG1, kappa, Substitution put into M103205H795-SG1) heavy: not shown light: DIVMTQSPATLSLSPGERATLSCTSSQSVYHANWLSWFQQKPGQPPKLLIYWASTLAYGVPSRFSGSGSGTDFTLTISSLQPEDAATYYCAGGYGGGRYAFGQGTKVEIKRTVAAPSVFIFPPSDEQLKSGTASVVCLLNNFYPREAKVQWKVDNALQSGNSQESVTEQDSKDSTYSLSSTLTLSKADYEKHKVYACEVTHQGLSSPVTKSFNRGEC | 2.4 fold | 1.3 fold | 4 fold | 1.4 fold | 3.52 fold | 2.2 fold | 1.4 fold | 1.8 fold |

— patent US20200317768A1 (published 2020)
